According to article doi:10.1101/2020.01.12.903617, “The peptide sensor motif stabilizes the outward-facing conformation of TmrAB” (bioRxiv, 2020):
Positions count from the first letter of the chain named. No end group written: not given here. fluorescein = fluorescein label attached to the Cys side chain

How the values were obtained:
[1] = biological target: T1, TmrAB R121A^TmrB (Thermus thermophilus, UniProt Q72J05 1-600; Q72J04 1-578, R121A); experiment: fluorescence polarisation; 1.7 uM TmrAB with 50 nM RRY(C^Fluorescein)KSTEL in SEC buffer (20 mM HEPES, 150 mM NaCl, pH 7, 0.05% ß-DDM), 15 minutes on ice, in the absence or presence of 5 mM ATP and 10 mM MgCl2; read at 25°C (the results say 4°C); signal normalized to WT without ATP; conditions: both partners purified
T1 construct: TmrA, Thermus thermophilus, the chain of TmrAB with the canonical Walker B motif; TmrB, Thermus thermophilus, the chain of TmrAB with the non-canonical Walker B motif
T1 sequence 1: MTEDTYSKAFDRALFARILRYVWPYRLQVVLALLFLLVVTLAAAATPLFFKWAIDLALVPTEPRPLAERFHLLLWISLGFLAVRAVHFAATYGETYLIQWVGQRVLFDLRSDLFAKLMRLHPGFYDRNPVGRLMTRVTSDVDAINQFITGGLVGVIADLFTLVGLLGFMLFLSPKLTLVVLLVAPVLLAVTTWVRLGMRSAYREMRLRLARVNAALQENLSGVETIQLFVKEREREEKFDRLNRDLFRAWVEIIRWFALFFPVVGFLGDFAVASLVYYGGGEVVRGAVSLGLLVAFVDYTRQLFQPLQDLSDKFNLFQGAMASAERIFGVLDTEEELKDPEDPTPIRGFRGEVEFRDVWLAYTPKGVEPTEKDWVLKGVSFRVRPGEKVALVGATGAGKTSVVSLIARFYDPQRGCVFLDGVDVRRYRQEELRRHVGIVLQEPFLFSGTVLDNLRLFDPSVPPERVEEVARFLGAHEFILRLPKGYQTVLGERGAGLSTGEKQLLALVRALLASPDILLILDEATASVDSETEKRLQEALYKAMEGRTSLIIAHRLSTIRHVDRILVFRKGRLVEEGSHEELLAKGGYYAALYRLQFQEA
T1 sequence 2: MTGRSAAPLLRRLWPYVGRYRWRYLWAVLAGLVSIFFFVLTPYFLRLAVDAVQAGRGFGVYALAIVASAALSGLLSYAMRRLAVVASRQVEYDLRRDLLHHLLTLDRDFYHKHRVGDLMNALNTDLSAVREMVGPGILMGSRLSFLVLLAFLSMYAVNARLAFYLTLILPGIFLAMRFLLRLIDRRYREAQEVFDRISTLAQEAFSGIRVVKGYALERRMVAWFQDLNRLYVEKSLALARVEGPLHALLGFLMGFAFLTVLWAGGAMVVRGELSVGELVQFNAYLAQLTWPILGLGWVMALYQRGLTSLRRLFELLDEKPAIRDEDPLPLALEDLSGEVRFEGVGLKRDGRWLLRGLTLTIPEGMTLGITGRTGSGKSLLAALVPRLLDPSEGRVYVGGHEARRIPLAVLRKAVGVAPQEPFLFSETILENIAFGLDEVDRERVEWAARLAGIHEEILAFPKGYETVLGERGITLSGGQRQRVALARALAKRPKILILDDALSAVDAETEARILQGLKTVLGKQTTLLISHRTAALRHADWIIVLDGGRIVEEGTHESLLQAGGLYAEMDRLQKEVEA

[2] = biological target: T2, TmrAB R132A^TmrA (Thermus thermophilus, UniProt Q72J05 1-600; Q72J04 1-578, R132A); experiment: as above; conditions: both partners purified
T2 construct: TmrA, Thermus thermophilus, the chain of TmrAB with the canonical Walker B motif; TmrB, Thermus thermophilus, the chain of TmrAB with the non-canonical Walker B motif
T2 sequence 1: T1 sequence 1 with R132A
T2 sequence 2: T1 sequence 2 with A121R

B1: fluorescent transport substrate peptide RRY(C^Fluorescein)KSTEL (peptide)
peptide: RRYC(fluorescein)KSTEL
notes: fluorescein-labelled transport substrate peptide of TmrAB; also called fluorescently-labeled peptide substrate; peptide substrate; source: bought: Genscript
B1: binds [1]; binds [2].
